Experimental findings from patent publication US20050070692A1 (published 2005) are described below.

The target of experiment [1] is T1, human IL-1β (human, UniProt P01584 117-269).
T1 construct: mature; also called mature human IL-1β; Interleukin-1β
Nature of the experiment: competition ELISA on coated human IL-1β against biotinylated Mu007, average of three experiments. As to the method: (§1) Wells of 96-well ELISA plates (Nunc-lmmuno plate, Cat # 439454, NalgeNunc) were coated with 100 μL of 0.5. μg/mL of human IL-1β in 0.2M sodium carbonate-bicarbonate buffer (pH 9.4) overnight at 4° C., washed with Wash Buffer, blocked with Superblock blocking buffer for 30 min at 37° C., and washed again with Wash Buffer. A mixture of biotinylated Mu007 (0.16 μg/mL final concentration) and competitor antibody (Mu007, Hu007, or Hu007 analogs starting at 100 μg/mL final concentration and serial 3-fold dilutions) in ELISA Buffer were added in triplicate in a final volume of 100 μL per well. As a no-competitor control, 100 μL of 0.16 μg/mL biotinylated Mu007 was used. As a background control, 100 gLL of ELISA Buffer was used. ELISA plates were incubated at 37° C. for 2 hr. After washing the wells with Washing Buffer, 100 μL of 1 μg/mL HRP-conjugated streptavidin (Jackson ImmunoResearch) was added to each well. ELISA plates were incubated at room temperature for 30 min and washed with Washing Buffer. For color development, 100 μL/well of ABTS substrate was added. Color development was stopped by adding 100 μL/well of 2% oxalic acid. Absorbance was read at 415 nm.
Mu007, Hu007 and Hu007 analogs competed with biotinylated Mu007 in a concentration-dependent manner. […]
In general terms: In an ELISA, binding on a coated surface is turned into a signal by an enzyme label.

The target in experiment [2] is T1, human IL-1β. Nature of the experiment: cell-based or functional assay.
Experiment [3] deals with T1, human IL-1β. Nature of the experiment: cell-based or functional assay. This is another data set of the same source.
Experiment [4] has as its target T2, human IL-1α (human, UniProt P01583 113-271).
T2 sequence (looked up): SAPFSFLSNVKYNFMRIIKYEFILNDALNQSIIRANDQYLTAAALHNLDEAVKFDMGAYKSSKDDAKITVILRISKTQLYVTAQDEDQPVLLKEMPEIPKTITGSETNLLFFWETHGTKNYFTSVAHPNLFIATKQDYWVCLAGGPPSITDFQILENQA
Nature of the experiment: BIAcore, antibody captured on anti-IgG chip, ligand flowed. As to the method:
(§2) Affinities and specificities of both Hu007 and Mu007 were determined using BlAcore measurements. BIAcore™ is an automated biosensor system that measures molecular interactions. (Karlsson, et al. (1991) J. Immunol. Methods 145: 229-240). In these experiments antibody was immobilized at low density on a BIAcore™ chip. Ethyl-dimethylaminopropyl-carbodiimide (EDC) was used to couple reactive amino groups to purified goat anti-human IgG or goat anti-rabbit IgG to a flow cell of a carboxy-methyl (CM5) BIAcore™ sensor chip. Goat IgG was diluted in sodium acetate buffer, pH 4.0, and immobilized on a flow cell of a CM5 chip using EDC to yield 1000 response units. Unreacted sites were blocked with ehanolamine. A flow rate of 60 μL/min was used. Multiple binding/elution cycles were performed by injection a 100 μL solution of 15 μg/mL Mu007 or Hu007 followed by human IL-1β, mouse IL-1β, rat IL-1β, cynomolgus monkey IL-1β, porcine IL-1β, human IL-1 receptor antagonist, and human IL-1α at decreasing concentrations for each cycle (e.g., 1500, 750, 375, 188, 94, 47, 23.5, 12, and 0 picomolar). Elution was performed with glycine-HCl, pH 1.5. BIAevaluation™ was used to analyze the kinetic data. Table 2 depicts the affinities of Hu007 and Mu007 for human and cynomolgus IL-1β. […] Cynomolgus and porcine IL-1β had 100% binding to Hu007 relative to human IL-1β.
Background: Surface plasmon resonance follows binding to a sensor surface in real time, without labels.

Experiment [5] deals with T3, human IL-1 receptor antagonist (human, UniProt P18510 26-177).
T3 construct: also called IL-1ra
T3 sequence (P18510 26-177 limits assumed): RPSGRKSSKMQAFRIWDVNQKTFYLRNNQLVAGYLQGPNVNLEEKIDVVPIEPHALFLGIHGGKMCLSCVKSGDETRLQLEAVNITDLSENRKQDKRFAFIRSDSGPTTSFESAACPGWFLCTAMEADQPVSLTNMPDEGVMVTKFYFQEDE
The experiment is described as above. As to the method: as §2

Experiment [6] addresses T4, mouse IL-1β (mouse, UniProt P10749 118-269).
T4 sequence (looked up): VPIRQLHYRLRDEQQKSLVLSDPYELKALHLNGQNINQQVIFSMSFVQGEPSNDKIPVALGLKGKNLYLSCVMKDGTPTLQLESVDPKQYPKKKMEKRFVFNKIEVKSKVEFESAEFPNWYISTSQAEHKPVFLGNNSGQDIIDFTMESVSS
The description is as above. The procedure:
as §2

The target of experiment [7] is T1, human IL-1β. Description: competition ELISA on coated human IL-1β against biotinylated Mu007, Exp. C. As to the method: as §1
Mu007, Hu007 and Hu007 analogs competed with biotinylated Mu007 in a concentration-dependent manner. The IC₅₀ values of Mu007 and Hu007 in three independent ELISA competition experiments, obtained using the computer software Prism (GraphPad Software Inc., San Diego, Calif.) are shown in Table 1. The relative binding of Hu007 was on average 89% of Mu007.

B1: humanized antibody Hu007 (antibody, human IgG1, kappa, V domains shown)
VH: QVQLVQSGAEVKKPGASVKVSCKVSGYTFSRYWIEWVRQAPGKGLEWIGEILPGNGNINYNEKFKGKATITADTSTDTAYMELSSLRSEDTAVYYCSTIYYDYDQGFTYWGQGTLVTVSS
VL: DIQMTQSPSSLSASVGDRVTITCKASQDIDRYLSWFQQKPGKAPKSLIYRVKRLVDGVPSRFSGSASGTDYTLTISSLQPEDFATYYCLQYDEFPYTFGQGTKLEIKR
notes: Human IgG1 kappa; also called WT; Hu007 WT
As usually defined, the IC50 is the concentration needed to halve the response being measured. Take B1: the concentration for half-maximal inhibition (IC50) stood at 0.35 µg/mL in experiment [1] and 0.32 µg/mL in experiment [7]. In experiment [2], the “IC50, inhibition of human IL-1β stimulated proliferation” value was 57 Picomolar. Moreover, the “IC50, inhibition of IL-1β stimulated proliferation of T1165.17 cells (3H-thymidine), average of three experiments” value in experiment [3] stood at 0.48 nM. Besides, the “efficacy relative to Mu007 in the murine model of human IL-1β induced IL-6” value in experiment [3] is ~0.33 fraction of Mu007. Moreover, the binding result in experiment [4], in experiment [5] and in experiment [6] was “no binding” in each case. In experiment [7], the “Hu007/Mu007 × 100 (IC50 ratio, relative binding against Mu007)” value came to 82%.
